{
  "source": "patent US20230312689A1",
  "binders": {"B1": {"name": "CTMA9-105 (antibody, V domains shown)", "VH": "EVQLVESGGGLIQPGGSLRLSCAASGITVSSNYMSWVRQAPGKGLEWVSLIYSGGSTYYADSVKGRFTISRDNSKNTLYLQMNSLRAEDTAVYYCARDLEEAGGMDVWGQGTTVTVSS", "VL": "DIVMTQSPGTLSLSPGERATLSCRASQSVPSIYLAWYQQRPGQAPRLLIYGASSRATGIPDRFSGSGSGTDFTLTISRLEPEDFAVYYCQQYGSSPGTFGQGTKVEIK"}},
  "biological_target": "two kinds of spike viruses (Wuhan type S, European type SD614G)",
  "experiment": "cell-based or functional assay",
  "data": [
    {"binder": "B1", "values": [
      {"measurement": "IC50, pseudovirus neutralization test using the purified antibody", "result": "2 to 6", "unit": "ng/mL"}
    ]}
  ]
}
